Experimental data published in patent US20200010519A1, “NUCLEASE FUSIONS FOR ENHANCING GENOME EDITING BY HOMOLOGY-DIRECTED TRANSGENE INTEGRATION” (INSTITUT NATIONAL DE LA SANTE ET DE LA RECHERCHE …, priority 2017, published 2020).

Tested on: AAVS1 locus
Assay: HDI of GFP cDNA at AAVS1 locus, FACS analysis, HEK293 cells
Format: cell-based, human

| Molecule | HDI of GFP cDNA (homology-directed insertion of the GFP donor) |
| --- | --- |
| HE3: Cas9 fused to HE3 (166-296 aa of CtIP; SEQ ID NO. 14) containing the 3 CDK phosphorylation sites (protein, UniProt Q99708 166-296, looked up, fragment, fused to Cas9, Cas9 fused to HE3 (166-296 aa of CtIP; 14) containing the 3 CDK phosphorylation sites) TAFSFSGVNRLRRKENPHVRYIEQTHTKLEHSVCANEMRKVSKSSTHPQHNPNENEILVADTYDQSQSPMAKAHGTSSYTPDKSSFNLATVVAETLGLGVQEESETQGPMSPLGDELYHCLEGNHKKQPFE | HE1 was the only fragment shown to significantly stimulate |
| HE2: Cas9 fused to HE2 (46-296 aa of CtIP; SEQ ID NO. 13), lacking the first 45 aa (protein, UniProt Q99708 46-296, looked up, fragment, fused to Cas9, Cas9 fused to HE2 (46-296 aa of CtIP; 13), lacking the first 45 aa) KQERILDAQRLEEFFTKNQQLREQQKVLHETIKVLEDRLRAGLCDRCAVTEEHMRKKQQEFENIRQQNLKLITELMNERNTLQEENKKLSEQLQQKIENDQQHQAAELECEEDVIPDSPITAFSFSGVNRLRRKENPHVRYIEQTHTKLEHSVCANEMRKVSKSSTHPQHNPNENEILVADTYDQSQSPMAKAHGTSSYTPDKSSFNLATVVAETLGLGVQEESETQGPMSPLGDELYHCLEGNHKKQPFE | HE1 was the only fragment shown to significantly stimulate |
